Read-outs that look alike come from different tables or passages of the source.
What was measured:
Assay in all cases: EMSA
mDHX36 delta-OB-fold = molecular target: T1, mDHX36 delta-OB-fold (Mus musculus, UniProt B2RQS6 46-834+895-981, internal_change)
T1 sequence: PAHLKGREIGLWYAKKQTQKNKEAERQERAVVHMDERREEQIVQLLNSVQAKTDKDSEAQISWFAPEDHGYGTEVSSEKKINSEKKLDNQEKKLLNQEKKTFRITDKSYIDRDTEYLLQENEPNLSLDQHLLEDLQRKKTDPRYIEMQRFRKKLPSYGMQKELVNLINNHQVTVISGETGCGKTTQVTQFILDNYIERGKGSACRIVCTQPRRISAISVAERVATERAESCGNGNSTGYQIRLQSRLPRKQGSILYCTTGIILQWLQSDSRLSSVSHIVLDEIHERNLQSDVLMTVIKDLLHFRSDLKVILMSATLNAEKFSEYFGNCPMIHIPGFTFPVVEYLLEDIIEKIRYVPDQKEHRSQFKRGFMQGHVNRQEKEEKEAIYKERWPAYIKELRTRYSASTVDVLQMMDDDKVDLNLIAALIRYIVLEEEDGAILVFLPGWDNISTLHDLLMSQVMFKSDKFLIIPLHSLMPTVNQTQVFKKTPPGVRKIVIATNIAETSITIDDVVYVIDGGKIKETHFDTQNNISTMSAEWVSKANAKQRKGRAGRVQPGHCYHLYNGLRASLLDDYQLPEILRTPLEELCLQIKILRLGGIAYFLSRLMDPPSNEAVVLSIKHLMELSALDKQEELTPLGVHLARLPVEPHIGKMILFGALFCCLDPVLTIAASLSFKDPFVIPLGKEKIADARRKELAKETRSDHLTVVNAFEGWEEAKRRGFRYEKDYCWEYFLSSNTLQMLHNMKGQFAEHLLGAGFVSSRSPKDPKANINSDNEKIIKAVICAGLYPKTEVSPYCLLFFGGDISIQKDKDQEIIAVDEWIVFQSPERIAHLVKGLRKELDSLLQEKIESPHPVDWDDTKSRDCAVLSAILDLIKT

WT mDHX36 (46-982) [1] = molecular target: T2, WT mDHX36 (46-982) (Mus musculus, UniProt B2RQS6 46-982)
T2 sequence: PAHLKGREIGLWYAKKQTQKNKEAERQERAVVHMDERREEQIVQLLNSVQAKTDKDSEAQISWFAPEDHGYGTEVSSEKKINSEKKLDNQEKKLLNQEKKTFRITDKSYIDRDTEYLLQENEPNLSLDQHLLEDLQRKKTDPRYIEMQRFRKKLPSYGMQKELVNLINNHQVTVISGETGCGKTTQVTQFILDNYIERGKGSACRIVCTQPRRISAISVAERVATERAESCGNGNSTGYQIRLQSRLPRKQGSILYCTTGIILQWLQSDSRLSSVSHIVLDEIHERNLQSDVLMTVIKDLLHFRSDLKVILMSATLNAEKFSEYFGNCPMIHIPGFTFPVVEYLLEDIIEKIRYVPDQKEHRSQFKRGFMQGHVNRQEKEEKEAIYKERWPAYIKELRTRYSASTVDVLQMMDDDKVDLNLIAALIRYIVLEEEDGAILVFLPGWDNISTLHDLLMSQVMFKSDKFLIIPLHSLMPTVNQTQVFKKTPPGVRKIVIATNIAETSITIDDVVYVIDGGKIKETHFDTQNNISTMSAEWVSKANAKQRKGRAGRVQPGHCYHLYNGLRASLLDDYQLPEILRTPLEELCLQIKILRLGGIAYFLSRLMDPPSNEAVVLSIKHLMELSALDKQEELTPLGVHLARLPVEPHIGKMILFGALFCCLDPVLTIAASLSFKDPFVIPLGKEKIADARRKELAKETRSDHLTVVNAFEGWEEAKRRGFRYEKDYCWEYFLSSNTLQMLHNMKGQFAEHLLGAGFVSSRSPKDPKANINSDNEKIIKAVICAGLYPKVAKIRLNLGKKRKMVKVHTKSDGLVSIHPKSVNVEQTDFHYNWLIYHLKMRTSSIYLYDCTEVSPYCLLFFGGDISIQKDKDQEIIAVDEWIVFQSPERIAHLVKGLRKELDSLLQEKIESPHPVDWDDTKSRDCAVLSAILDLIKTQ

WT mDHX36 (46-982) [2] = molecular target: T2, WT mDHX36 (46-982); remark: listed apart in the source

Binder: UUAGGGGGAGGGGGAUGGGGGAGGGGGAAAAAAAAAAAAAAA (structured_RNA) [GQI (GQ1) intramolecular RNA G-quadruplex]
- apparent K (half saturation) (mDHX36 delta-OB-fold): ~50 nM
- binding result (WT mDHX36 (46-982) [1]): binds

B1: RNA duplex R16/R31 (dsRNA)
RNA 1: AGCACCGUAAAGACGC
RNA 2: GCGUCUUUACGGUGCUAAAAAAAAAAAAAAA
- binding result (WT mDHX36 (46-982) [2]): binds

Reference: paper PMC7225076
